± gives the uncertainty stated by the source.
assay: amyloid nucleation score (Sup35N fusion, yeast selection) (log enrichment); library NNK2; higher = more nucleation; inactive = no reads after selection
Procedure, shortened: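 Using DiMSum, nucleation scores were taken as the log enrichment of output over input reads, centred on the mode score of non-aggregating sequences. The input and output reads came from Illumina sequencing of plasmid inserts, with sequences under 100 input reads excluded. The yeast were psi-negative, expressed Sup35N fused to peptides of 20 random codons, were induced with 100 μM copper sulfate for 24 hours, and were grown 7 days at 30°C on medium lacking adenine and uracil.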

Substance	amyloid nucleation score
VFKLCTSPFSCLIGRMGGTD	9.172 ± 0.063
VFLKQVEPEGGQYETFLVVV	-0.19 ± 1.1
VFLYNIGFK	0.691 ± 0.38
VFNWLNRGEESWDVVLVV	inactive
VFSFRGLFGFIPMVPYWYAI	inactive
VFTSYFLLFICLGYCEFYGD	4.299 ± 0.042
VFWSVYFDACLVFMTVSYLL	inactive
VGAYPEEKR	-0.013 ± 0.38
VGGGTECVLSRQEFGCWLLW	0.649 ± 0.48
VGIRCLRFFNMIVLEG	-0.059 ± 0.55
VGIYDYVLRSC	0.115 ± 0.33
VGLGVRVEVLTMSFTILQSV	3.36 ± 0.078
VGLISERLVSMSTVA	0.4 ± 0.56
VGPVMINSSSVTQCTGWNRT	3.8 ± 0.091
VGPVNQRWGVTISLAPEVCF	0.553 ± 0.57
VGRGMHTSYFVGTHTWLSVC	4.83 ± 0.11
VGSKWLNGSRGKRLELRIGR	4.03 ± 0.12
VGTGLIIA	1.18 ± 0.47
VGTLNGFRRFGRSGKFNILE	-0.195 ± 0.27
VHHLDNYLQAN	-0.659 ± 0.34
VHLALTRCM	0.844 ± 0.32
VHPGTR	4.08 ± 0.065
VHRSSLASNGSLES	-0.398 ± 0.45
VHTMY	-0.299 ± 1.1
VHVCVVACFACFSANSEKGG	10.79 ± 0.042
VHWSWIAVAGHKDRAPGVRR	1.21 ± 0.3

Substance	amyloid nucleation score
VHYQLKSIRMDSM	0.484 ± 0.19
VICEIMYNKMCDTSLRSSLS	0.329 ± 0.65
VICRGVHSHSLGWGSCITCS	-0.98 ± 0.48
VIFAHGVFGECWFVYSLVFS	-0.784 ± 0.76
VIFCVLLVNNLDWRFWPSSK	4.928 ± 0.037
VIISCTYVNY	-0.002 ± 0.4
VIRRGMFIQPAFAKMLSAWF	-0.231 ± 1
VIRTPILGYWSCIGTFNVFW	8.167 ± 0.044
VIVSMVSE	inactive
VIYKSLHRLVISRVNVFFPV	-0.263 ± 0.65
VKFFSSVLSNDGFRSLGVCL	0.13 ± 1.1
VKMFVF	-0.221 ± 0.79
VKPHFRLGGNQNRPIPCSVS	0.318 ± 0.45
VKSMFLYTASSADPERGVYG	-1.27 ± 1.1
VKVVVNSSDNCVSIDWSYGR	2.14 ± 0.17
VKWISMCSILSYRRG	-1.08 ± 0.78
VKWTVHYNAVAKRIRLMIVY	0.437 ± 0.8
VLAAT	-0.815 ± 0.55
VLDINIFMISYCFHMHYDQV	5.49 ± 0.091
VLDSWRR	-0.963 ± 1.1
VLFCT	-1.29 ± 0.61
VLFNYKLITGSMFCTRHTRP	2.08 ± 0.11
VLFVTVPLSMVIMVSQT	-0.277 ± 1
VLGKFVEPGMAGLSVTPFRM	0.829 ± 0.57
VLGLSR	0.584 ± 0.51
VLGMYVFDRG	0.543 ± 0.46

Substance	amyloid nucleation score
VLGNSLELVGNRLDSI	4.11 ± 0.066
VLGVLQFVAFWNVVMWISPL	-0.659 ± 0.76
VLICFVSLRLKVGTLIPTTT	-0.37 ± 0.76
VLISSKYLIQSVDYILLNGP	-0.217 ± 0.29
VLKQLLFFS	4.357 ± 0.039
VLLGPSSYRLTYTMGRRRDG	0.685 ± 0.66
VLNERYSTLVVAPTRNASGL	inactive
VLPEWSLF	inactive
VLPRGD	0.125 ± 0.4
VLPRYN	0.471 ± 0.62
VLQDMYYKSVKKLQARSKDF	inactive
VLQRCRTAVKPYQHNNCLIM	2.26 ± 0.11
VLSEYGDTNYKIQGRATCGK	0.928 ± 0.6
VLSNSEYVFTNR	-0.5 ± 0.28
VLSRFLASKRNCPVPDSLG	0.093 ± 0.29
VLTNKLQVTVCLLC	8.448 ± 0.046
VMALSIMTMGTSVGFRDNGG	4.38 ± 0.071
VMCEEGLALRRCTGWLMFTG	1.11 ± 0.28
VMIMVEVNPWGRCGRRRERS	9.613 ± 0.052
VMIVFLDAFFGNLRANVVWY	-0.846 ± 0.49
VMLNWKMVYRTRDFNLQSYD	1.85 ± 0.15
VMMIQTVQFRLTSKSSGMSR	5.259 ± 0.043
VMRNKILF	-0.341 ± 0.79
VMRVT	5.22 ± 0.081
VMSFTASA	0.607 ± 0.51
VMVFVCVAYEYEFSPIRGPE	inactive

Substance	amyloid nucleation score
VMWKEFLPGILCGCCKLGFS	-0.481 ± 0.33
VMWRTRGTACSLIVRWVGMG	0.822 ± 0.25
VNAVSKGTCLLIWFRDFVAY	-0.113 ± 1.1
VNCCDFVVC	-0.063 ± 0.49
VNFFNLINRRGTPNRWFYAS	0.201 ± 1
VNKILQEYMACRRNLQTQMW	-0.215 ± 0.3
VNLFVLDSRTNGVCFWELMT	-0.452 ± 0.55
VNLGSGAVEPTTLRKFGLTR	4.28 ± 0.06
VNLITGIMYI	inactive
VNLSCPVMNRTSMMCVVYLH	7.799 ± 0.052
VNLSDDCELVYRSCEVLLNY	-1.34 ± 1.1
VNLVYSYFNISGWIEFSSLC	2.98 ± 0.053
VNMFSFHYFHSVMRFLFYRW	-0.751 ± 0.41
VNNNLLNASLAMVSM	inactive
VNSEISDYLHDGDGSRVRSI	-0.025 ± 0.79
VNSFIDDSCLGMANPLPYWS	-1.03 ± 1
VNSSFLLGFCLRIMNHV	inactive
VNSVMARMITCTSVVGCKYW	-0.259 ± 0.19
VNVPYIRMIDHLLTYTQL	-0.081 ± 1.1
VNWLFACVELR	0.365 ± 0.36
VNYFVRGTVSK	0.074 ± 0.74
VPFGNESWLYTR	-1.06 ± 0.64
VPFYVFSVIGMIYMHGWVEW	-0.748 ± 0.56
VPISHLNCYFFW	8.686 ± 0.084
VPLHDARTRM	0.637 ± 0.24
VPQLSLQLVQRIFGFPSVIL	-0.288 ± 0.41

Substance	amyloid nucleation score
VPRLILSIYFIICLTTQEAV	-0.24 ± 0.65
VPSRGLF	0.815 ± 0.4
VPSRS	0.172 ± 0.65
VPSSNFVWVFLRLKS	-0.996 ± 0.49
VPYGRAGFVTTYAVCCYNCK	-0.47 ± 1.1
VPYSICSKSSRESCRYVWYG	3.79 ± 0.053
VQICLGNPNWGNPANRSFVV	1.95 ± 0.2
VQLWYILITKMVR	-1.02 ± 1
VQYLVDCMYWVQGMAVSE	0.475 ± 0.46
VRARYASLCHGIAAEGIVGV	0.506 ± 0.28
VRGSNV	-0.637 ± 0.33
VRKSFLCCKQMGLLF	-1.14 ± 0.64
VRLFTVGWRSGKNVGNTSDA	-0.263 ± 1.1
VRLLLYWVAVRWRETDCCCS	0.315 ± 0.48
VRMMCLQGATTGATNSPSNR	-0.526 ± 0.37
VRNGWCTSWNSTAN	0.974 ± 0.52
VRPCRP	1.49 ± 0.55
VRRCIVRI	0.267 ± 0.4
VRSLKTHRFPFLCERSKFMG	-0.987 ± 0.38
VRWIKVFHFP	-0.784 ± 0.76
VSAKNIMSSAAER	0.451 ± 0.35
VSCLTAPILSMENPSEEYVG	1.55 ± 0.35
VSDLKVAQNCANKVIKLRYR	5.01 ± 0.072
VSDLRRMKDGC	inactive
VSFRHQCWNACNSDSVGEEI	0.892 ± 0.48

From the supplement of paper PMC12042874
